Experimental data taken from the nanobody polyreactivity screen of Harvey et al. (2022).

experiment: yeast display, Sf9 membrane polyspecificity reagent, FACS + sequencing; frameworks hold sequencing errors
Procedure, shortened: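 Polyreactivity labels are assigned by the sorting gate from which each nanobody was recovered. The gates were low and high (top ~1%), set on anti-HA fluorescence for expression and streptavidin fluorescence for reagent binding. Before sorting, galactose-induced (36–48 hours) yeast display cells were stained for 1 hour at 4 °C with 10% biotinylated, detergent-solubilized Sf9 membrane reagent.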

Row | Sequence | polyreactivity (PSR sort gate)
1 | QVQLVESGGGLFQAGGSLRLSCAASGSTFRFNAMGWYRQAPGKERELVAAISRSGGTTYYADSVKGRFTISRDNAKNTVYLQMNSLKPEDTAVYYCNAQWWRYWPSQVIFDYWGQGTQVTVSS | high polyreactivity
2 | QVQLVESGGGLFQAGGSLRLSCAASGSTFVWYAMGWYRQAPGKEREFVAANTNSGGSTYYADSVKGRFTISRDTAKNTVYLQMNILKPEDTAVYYCAAQSYYFSYHYDYWGQGTQVTVSS | low polyreactivity
3 | QVQLVESGGGLFQAGGSLRLSCAASGSTFYIYAMGWYRHAPGKERELVARITRGGTTYADSVKGRFTISRDNAKNTVYLQMNSLKPEDTAVYYCNAYISDDRYWSPAIEEDYWGQGTQVTVSS | high polyreactivity
4 | QVQLVESGGGLFQAGGSLRLSCAASGSTSRYPMGWYRQAQGQERELVAAITRSGGTTYYADSVKGRFTISRDNAKNTVYLQMYSLKPEDTAVYYCATSDRQVKYDYWGQGTQVTVSS | low polyreactivity
5 | QVQLVESGGGLFQAGGSLRLSCAASGTFYIYAMGWYRQAPGKERELVAGISFSGGSTYYADSVKGRFTISRDNAKNTVYLQMNSLKPEDTAVYYCAAELYVLPYDYWGQGTQVTVSS | high polyreactivity
6 | QVQLVESGGGLFQAGGSLRLSCAPSGRISNKYAMGWYRQAPGKERELVAAISYSGGTTYYADSVKGRFTISRDNAKNTVYLQMNSLKPEDTAGYYCAREWTKGYGYYWGYYWGQGTQVTASS | low polyreactivity
7 | QVQLVESGGGLFQAGGSLRLSCAPSGSIFQYNAMGWYRQAPGKERELVAAINRRGTRTYYADSVKGRFTISRDNAKNTVYLQMNSLKPEDTAVYYCNKYQSTDVRSSYSAGYGYWGQGTQVTVSS | high polyreactivity
8 | QVQLVESGGGLFQAGGSLRLSCAPSGSNFSIYAMGWYRQAPGKERELVAAITWGGGSTYYADSVKGRFTISRDNAKNTVYLQMNSLKPEETAVYDCAADSLTWYGTYYYWGQGTQVTVSS | high polyreactivity
9 | QVQLVESGGGLFQAGGSLRLSCSASGFIFRGYAMGWSRQAPGKERELVAAISTGGGRTYYADSVKGRFTISRDNAKNTVYLQMNSLKPEDTAVYYCNRLSYTQVLMDYWGQGTQVTVSS | high polyreactivity
10 | QVQLVESGGGLFQAGGSLRLSSAASGIIFGYYSLGWYRQAPGKERELVAAINQDGSSTYYADSVKGRFTISRDNAKNTVYLQMNSLNPEDTAVYYCNARGVPRQDDRMGYWGQGTQVTVSS | low polyreactivity
11 | QVQLVESGGGLFQAGGSLRLSSAASGIIFSTYAMGWYRQAHGKERELVAAITSTGSTNYADSVKGRFTISRDNAKNTVYLQMNSLKPEDTAVYYCAAEGHTAFLVYRVSPLQYDYWGQGTQVTVSS | low polyreactivity
12 | QVQLVESGGGLFQAGVSLTLSFAASGSIFDINAMGWYRQEPWKETDLVAAIRSGDRTHYADSVKGRFTISRDNAMNTVYLQMNSLIPEDTAVYYCAADRFIYLNRELDYWGQGTQVTVSS | low polyreactivity
13 | QVQLVESGGGLFQEGGSLRLSCAASGSTFPSYAMGWYRQAPGKERELVAAINSGGGTNYADSVKGRFTISRDNAKNTVYLQMNSLKADDTEVYYCAKSRYDYTKSEGGYWGQGTQVTVSS | low polyreactivity
14 | QVQLVESGGGLFRAGGSLRLICAASGITFYGYAMGWYRQAPGKERELVAAITWSGGRTYYADSVKGRFTISRDNAKNTVYLQMNSMKPEDTAVYYCARRTWHSVGYWGQGTQVTVSS | high polyreactivity
15 | QVQLVESGGGLGQAGGRLRLTCAASGFTFRPYDMGWYRQAPGKERELVAVIIGGDSTNYADSVQGRFTISRDNAKNTVYLQMNSLKPEDTAVYYCAADYIDRVGWMDYWGQGTQVTVSS | low polyreactivity
16 | QVQLVESGGGLGQAGGSLLLSCAASGRIFWCNAMGWTRQAPGKERELVAAIRWSGGSTYYADSVKGRFTISRDNAKNTVYLQMNSLKPEDTAVYYCAASPYWSDWTKVDSWGQGTQVTVSS | low polyreactivity

Row | Sequence | polyreactivity (PSR sort gate)
17 | QVQLVESGGGLGQAGGSLRLSCAASGFIFQANAMGWYRQAPGKERELVAAIDDGDSTYADSVKGRFTISRDNAKNTVYLQMNSLKPEDTAVSYCAPRRNRSYDYWGQGTQVTVSS | low polyreactivity
18 | QVQLVESGGGLGQAGGSLRLSCAASGFTFVYYAMGWYRPAPGKERELVAAISSRGGSTNYADSVKGRFTISRDNAKNTVYLQMNSLKPEDTAVYYCATYFSIQRRGDYWGQGTQVTVSS | high polyreactivity
19 | QVQLVESGGGLGQAGGSLRLSCAASGGTFYAYAMGWYRQAPGKEREFVAAISRRGGSTYYADSVKGRFTISRDNAKNTVYLQMHSLKPEDNAVYYCKALYSSSPGAKPWGEYNYWGQGTQVTVSS | high polyreactivity
20 | QVQLVESGGGLGQAGGSLRLSCAASGLIIQPNAMGWYSPAPGKERELVAAISSSDGSTYYADSVKGRFTISRDNAKNTVYLQMNSLKREDSAVYYCAAGYYFQVEPDLVYIYSYEYWGQGTHVTVSS | low polyreactivity
21 | QVQLVESGGGLGQAGGSLRLSCAASGRIFFHYAMGWYRPAPGKERELVATITTVGSTYYADSVKGRFTISRDNAKNTVYLQMNSLKPEDTAVYYCAARYISLSGDEYDYWGQGTQVTVSS | low polyreactivity
22 | QVQLVESGGGLGQAGGSLRLSCAASGRTFYDNAMGWYRPAPGKERELVAAISSSGSSTYYADSVKGRFTISLDNAKNTVYLQKNSLKPEDTAVYYCSASYTDYYFGFGTDVRYGYWGQGTQVTVSS | high polyreactivity
23 | QVQLVESGGGLGQAGGSLRLSCAASGSIFQPYAMGGYRQAPGKERELVAAISSSGGSTTYADSVKGRFTISRDNAKNTVYLQMNSLKPEDTAVYYCAAEYDGPYTWVDYFYHYGYWGQGTQVTVSS | low polyreactivity
24 | QVQLVESGGGLGQAGGSLRLSCAASGSTFEGYAMGWYRQAPGKERELVAAISSSGGRTYYADSVKGRFTISRDNAKNTVYLQMNSLKPEDTAVYYCAADVSTAAVRSDSWGQGTQVTVSS | low polyreactivity
25 | QVQLVESGGGLGQAGGSLRLSCAASGSTFTRYGMGWSRQAPGKERELVAAITTSGSSTYYADSVKGRFTISRDNAKNTVYLQMNSLKPEDTAVYYCAADWSSWGFDYWGQGTQVTVSS | low polyreactivity
26 | QVQLVESGGGLGQAGGSLRLSCPASGITFVYYAMGWYRQSPGKERELVATITKSGVSTYYADSVKGRFTISRDNAKYTVYLQMNSLKPEDTAVYYCAKDVSYRFYWTYDYWGQGTQVTVSS | low polyreactivity
27 | QVQLVESGGGLGQAGGSLRLTCAASGSTFWYYAMGWYRQAPGKERELVAAITSGDSTYYADSVKGRFTISRDNAKKTVYLQMNSLKPEDTAVYYCAADLPWEDGYYFYSGYTEYDYWGQGTQVTVSS | low polyreactivity
28 | QVQLVESGGGLGQAGGSLSLSCAASGFNFSHYAMGWYIPAPGKERELVAAITRGGSTKYADSVKGRFTISRDNAKNTVDLEMNSLKPEDTAVYYCAKDKTYRNVRGVGYWGQGTQVTVSS | high polyreactivity
29 | QVQLVESGGGLIQAVRSHRLSFAASGSTFRRYAMRWYRQEPGKEREISTSDGSTYYADSVKGRFTISRENAKNTVYLQMNSLKPEDTAVYYCAADGYRKLIEDITDDYCGQGTQVTVSS | low polyreactivity
30 | QVQLVESGGGLIQPGGSLRLSCAASGSTFANNAMGWYRQAPGKESELVASISSDGSTNYADSVKGRFTISRDNAKNTVYLQMNSLKPEDTAVYYCAADWYYSADYFHFGYWGQGTQVTVSS | low polyreactivity
31 | QVQLVESGGGLLQAGGILRLSCAASGRIFFANAMGWYRQAPGKERELVASITRRSGGTYYADSVKGRFTISRDNAKNTVYLQMNSLKPEDTAVYYCAARYTFPKALYYYWGQGTQVTVSS | high polyreactivity
